Reference: the supplement of paper PMC9732359
± gives the uncertainty stated by the source.

Experiment: protein stability index of a GFP-peptide fusion (yeast GPS) (PSI 1-4); higher = more stable; sorted into four equal gates, so the index is relative within each strain
Method in brief: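 The protein stability index combines read frequencies across sorting gates, each weighted by its gate number and then summed. To obtain those frequencies, a pooled yeast library of GFP fusions to tiled 17-residue yeast protein peptides, on a plasmid also expressing Cherry, was grown to mid-log phase in leucine-free medium. The cells were sorted into four equal gates by GFP/Cherry ratio before plasmid amplification by PCR and Illumina sequencing.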

Sequence | protein stability index (doa10∆) | protein stability index (pdr5∆) | protein stability index (san1∆) | protein stability index (ubr1∆)
STSYAIKKKDELERVAK [RPS5] | 3.44 ± 0.084 | 3.52 ± 0.11 | 3.33 ± 0.061 | 3.35 ± 0.081
STTMDGANDLGFTASVS [MED1] | 3.08 ± 0.092 | 3.1 ± 0.061 | 3.07 ± 0.072 | 2.99 ± 0.081
STTTSVNGSTTAGVGST [SIN4] | 3.06 ± 0.044 | 2.99 ± 0.048 | 3.07 ± 0.041 | 2.85 ± 0.036
STVSGELNDNPAWFNNP [YMR153W/NUP53] | 3.36 ± 0.086 | 3.47 ± 0.056 | 3.29 ± 0.044 | 3.35 ± 0.049
STYRLEDVLSSFYRVEK [SSN2] | 2.09 ± 0.074 | 2.34 ± 0.073 | 1.87 ± 0.1 | 2.48 ± 0.094
SVAPTKQREIVKAFLSI [NUT1] | 2.1 ± 0.11 | 1.94 ± 0.073 | 2.41 ± 0.13 | 2.04 ± 0.063
SVDLEKLAFGLTKLNED [TAF14] | 3.54 ± 0.19 | 3.45 ± 0.17 | 3.6 ± 0.092 | 3.61 ± 0.12
SVKESTGMSSMSPFLRK [SRB4] | 3.42 ± 0.14 | 2.6 ± 0.23 | 2.1 ± 0.25 | 3.15 ± 0.079
SVKFTHIAHTLPEKVNF [SSN2] | 2.17 ± 0.05 | 2.28 ± 0.042 | 2.2 ± 0.066 | 1.92 ± 0.029
SVKSARTSTRGRGRGRG [SNF2] | 3.38 ± 0.065 | 3.35 ± 0.064 | 3.19 ± 0.046 | 3.32 ± 0.041
SVLQLIVSEDHIILDTI [MED1] | 2.2 ± 0.17 | 2.7 ± 0.19 |  | 2.08 ± 0.26
SVMMQDSPASNEDDLTV [RPO31] | 3.02 ± 0.097 | 3.08 ± 0.083 | 2.78 ± 0.076 | 3.31 ± 0.12
SVQNLDQLLTDLIETSF [NUT1] | 2.9 ± 0.15 | 2.64 ± 0.1 | 2.94 ± 0.066 | 2.85 ± 0.11
SVRGAIVGPDLAVLALV [RPS6A] | 1.18 ± 0.041 | 1.46 ± 0.06 | 1.14 ± 0.11 | 1.38 ± 0.045
SVRKFLEIALFKYRKAR [RPO31] | 2.31 ± 0.12 | 1.18 ± 0.097 | 1.36 ± 0.17 | 1.32 ± 0.15
SVRLFSFLDPLNYGNIC [YJL039C/NUP192] | 1.88 ± 0.053 | 2.21 ± 0.069 | 2.47 ± 0.061 | 2 ± 0.063
SVSSPIELNFDAVKDFK [QCR2] | 1.89 ± 0.069 | 1.67 ± 0.065 | 2.5 ± 0.09 | 1.57 ± 0.053
SVTRAGNIISSDKTIVP [SIN4] | 3.01 ± 0.12 | 2.88 ± 0.099 | 2.97 ± 0.12 | 3.1 ± 0.068
SWSNGKITSPIRSVALN [RRP42] | 2.62 ± 0.11 | 2.62 ± 0.089 | 2.66 ± 0.091 | 2.81 ± 0.073
SWSSSAAVIMRCKIYFF [PCI8] | 1.24 ± 0.055 | 1.71 ± 0.058 | 1.34 ± 0.11 | 1.28 ± 0.047
SYANHLEESDVEDTLHV [YOR098C/NUP1] | 2.98 ± 0.082 | 2.4 ± 0.065 | 2.13 ± 0.081 | 1.97 ± 0.051
SYHLWPSFTDEQWITIE [PRP8] | 2.44 ± 0.089 | 2.66 ± 0.061 | 2.82 ± 0.09 | 2.57 ± 0.057
SYLISHKDSFYDRATLT [RPO31] | 2.43 ± 0.073 | 2.6 ± 0.067 | 2.21 ± 0.065 | 2.35 ± 0.072
SYLSETLISRISSLFTI [YML103C/NUP188] | 1.77 ± 0.062 | 1.89 ± 0.064 | 1.5 ± 0.074 | 2.05 ± 0.083
SYSGYDIEDALVLNKSS [RET1] | 2.4 ± 0.059 | 2.63 ± 0.052 | 2.18 ± 0.071 | 2.45 ± 0.047
SYSPTSPSYSPTSPAYS [RPO21] | 3 ± 0.071 | 3.05 ± 0.063 | 2.73 ± 0.062 | 3.15 ± 0.048
SYTAFSRLTLLLRALKT [PRP8] | 1.27 ± 0.042 | 1.19 ± 0.037 | 1.24 ± 0.082 | 1.25 ± 0.035

Sequence | protein stability index (doa10∆) | protein stability index (pdr5∆) | protein stability index (san1∆) | protein stability index (ubr1∆)
SYWQKSYFKNSVIVKFH [LIN1] | 2.56 ± 0.041 | 2.62 ± 0.045 | 2.42 ± 0.06 | 2.35 ± 0.041
TAAETFKLFNKYRPETA [RPL8A] | 2.8 ± 0.065 | 3 ± 0.059 | 2.64 ± 0.072 | 2.8 ± 0.051
TAAQVANVELTPSNIRS [RPC34] | 2.79 ± 0.1 | 2.82 ± 0.071 | 2.8 ± 0.085 | 2.87 ± 0.093
TAELIKELKEKEAAESP [PUP2] | 2.79 ± 0.058 | 3.3 ± 0.094 | 3.21 ± 0.12 | 3.22 ± 0.074
TAKKDMSSTTPKLESVK [SNF12] | 3.31 ± 0.056 | 3.35 ± 0.05 | 3.1 ± 0.042 | 3.27 ± 0.04
TAKRKSRKRKPKSASNT [IRR1] | 2.97 ± 0.12 | 3.21 ± 0.13 | 2.6 ± 0.26 | 3.08 ± 0.055
TAMKKVEDGNILVFQVS [RPL25] | 2.53 ± 0.049 | 2.48 ± 0.056 | 2.48 ± 0.052 | 2.8 ± 0.044
TAQEINFKMLVLLATWN [IRR1] | 1.84 ± 0.039 | 2.04 ± 0.047 | 2.14 ± 0.051 | 1.83 ± 0.031
TASDQLFGMCESLYEPN [PUP3] | 2.06 ± 0.059 | 2.12 ± 0.058 | 2.71 ± 0.084 | 1.83 ± 0.039
TATTGKRKPAKSSSNRS [RPN4] | 2.68 ± 0.065 | 2.96 ± 0.07 | 2.68 ± 0.047 | 2.85 ± 0.047
TAVNGIDTDLFGAPNNP [YGL172W/NUP49] | 3.1 ± 0.083 | 3.23 ± 0.08 | 3.25 ± 0.058 | 3.19 ± 0.053
TAVVNNAAPANVTGGKA [SWI1] | 2.64 ± 0.038 | 1.98 ± 0.04 | 2.37 ± 0.093 | 2.66 ± 0.037
TCGSKGSTLNVSQMVAV [RPO31] | 3.1 ± 0.13 | 2.89 ± 0.097 | 2.91 ± 0.15 | 2.79 ± 0.15
TCSCCKKTVAGGAYTVS [RPL43A] | 1.65 ± 0.064 | 2.1 ± 0.11 | 1.76 ± 0.086 | 2.15 ± 0.066
TCSYVEEAGSPLVYRHE [RPB9] | 3.06 ± 0.13 | 2.92 ± 0.15 | 3.28 ± 0.11 | 2.75 ± 0.28
TDLENSSLFQEKLLETN [ECM29] | 2.52 ± 0.096 | 2.46 ± 0.079 | 2.49 ± 0.056 | 2.68 ± 0.057
TDLRLSTNGLGMCQLYF [SNU114] | 3.48 ± 0.12 | 3.52 ± 0.13 | 2.98 ± 0.23 | 3.08 ± 0.21
TDNVSMYPSPTGVMIGI [PRP8] | 2.65 ± 0.065 | 2.41 ± 0.063 | 2.02 ± 0.086 | 2.3 ± 0.041
TEAAFTKLDQVWGSETV [RPL4A] | 1.84 ± 0.18 | 1.87 ± 0.11 | 3.07 ± 0.067 | 2.15 ± 0.14
TEKDDNKTNNEDLFDDY [NUT1] | 2.92 ± 0.055 | 3.25 ± 0.053 | 3.01 ± 0.052 | 3.08 ± 0.049
TELVDGRENFVYANNPE [SIR3] | 3.15 ± 0.1 | 3.33 ± 0.11 | 3.05 ± 0.13 | 2.95 ± 0.083
TERVVEIGPSPTLAGMA [FAS2] | 2.501 ± 0.018 | 2.599 ± 0.017 | 2.496 ± 0.019 | 2.496 ± 0.012
TESLRVENSVLIEKVDD [YIL149C/MLP2] | 2.48 ± 0.17 | 2.98 ± 0.22 | 2.63 ± 0.14 | 2.79 ± 0.074
TESVPEPKLFRMRIFAS [RPL20A] | 3.36 ± 0.13 | 3.02 ± 0.18 | 3.02 ± 0.13 | 1.21 ± 0.24
TETEVEREQPQENKNID [SRB4] | 3.42 ± 0.1 | 3.41 ± 0.091 | 3.07 ± 0.068 | 3.62 ± 0.089
TFAKSKNYSRPSTAIHT [SIR4] | 2.03 ± 0.099 | 1.79 ± 0.066 | 1.53 ± 0.1 | 2.15 ± 0.05
